The text below walks through data of US7812117B2, “Vasostatin as marrow protectant” (The United States of America as represented by the …, priority 1998, dated 2010).

Read-outs that look alike come from different tables or passages of the source.

Data set [1] has as its system peripheral blood white cells. The protocol: Mice (C57BL/B6, females, 7.5 weeks old) were treated for 1 week with daily inoculations of vaso (300 μg/mouse) or buffer alone. On day 8, the mice received cytoxan (1 or 2 mg/mouse) and continued daily inoculation with buffer or vaso. Peripheral blood white cell counts were measured on day 5 after administration of cytoxan.
C57BL6J mice (7 weeks of age) were first treated for 7 days daily with either buffer (100 μl s.c.) or vaso (300 μg/mouse in 100 μl of buffer s.c.). On day 8, groups of mice (n=6) pretreated with either buffer or vaso were injected with cyclophosphamide (1.0 or 2.0 mg/mouse) and continued on daily inoculations of buffer (100 μl s.c.) or vaso (300 μg/mouse in 100 μl of buffer s.c.). Additional control mice were treated with only buffer or vaso for 5 additional days. On days 3 and 5 after cyclophosphamide injection, ½ of the mice were killed for evaluation of the bone marrow and peripheral blood.

Data set [2] concerns Burkitt lymphoma cells (CA46 cell line). Kind of data set: Burkitt lymphoma CA46 tumor growth in athymic mice treated with vaso and/or cyclophosphamide. The format is in vivo, human. The settings on record: vaso 200 μg/day s.c., cyclophosphamide 260 μg/mouse/day i.p. for 26 days; for average tumor size: buffer control 5.85; for average tumor weight: buffer control 6.75. On the procedure:
Groups of 6-8 athymic BALB/c nu/nu mice, 6 weeks of age, were first irradiated with 400 rad, and 24 hr later were inoculated s.c. with 8×10^6 Burkitt lymphoma cells (CA46 cell line). Beginning 24 hr after cell inoculation, one group (n=6) of mice received daily s.c. inoculations of buffer alone (100 μl); a second group (n=6) received daily s.c. inoculations of a fusion protein of maltose binding protein and vasostatin, MBP-vaso, alone (200 μg in 100 μl of buffer); a third group (n=8) received daily s.c. inoculations of buffer alone (100 μl) plus cyclophosphamide once on day 9 post cell inoculation (2.6 mg i.p. in 100 μl of buffer); a fourth group (n=8) received daily s.c. inoculations of vaso (200 μg in 100 μl of buffer) plus cyclophosphamide once on day 9 post cell inoculation (2.6 mg i.p. in 100 μl of buffer); a fifth group received daily s.c. inoculations of buffer alone (100 μl) plus daily i.p. inoculations of cyclophosphamide (260 μg/mouse in 100 μl of buffer); and a sixth group received daily s.c. inoculations of vaso (200 μg/mouse in 100 μl of buffer) plus daily i.p. inoculations of cyclophosphamide (260 μg/mouse in 100 μl of buffer).

Data set [3] concerns bone marrow cells. On the procedure: Groups of C57BL/6 mice (8 weeks of age) were treated as described in FIG. 14. FIG. 4A is a bar graph of the bone marrow cell count from mice treated for 16 days with either buffer alone (PBS, 100 μl/mouse/day s.c), Vaso (300 μg/mouse/day s.c) alone, Cytoxan (500 μg/mouse/day i.p.) alone, or vaso (300 μg/mouse/day s.c) plus Cytoxan (500 μg/mouse/day i.p.). Bone marrow was harvested on days 9 and 17 and the number of nucleated cells were counted. FIG. 4B is a bar graph of the bone marrow cell count from mice treated with for 11 days with either buffer alone (PBS, 100 μl/mouse/day s.c), Vaso (300 μg/mouse/day s.c) alone, Cytoxan (250 μg/mouse/day i.p.)×11 days plus Cytoxan 2 mg/mouse i.p. on day 11, or Cytoxan ([…] s.c, days 1-16). Bone marrow cell counts were obtained on day 17. FIG. 4C is a bar graph of peripheral blood white cells counts (WBC) on day 17 from mice from the same treatment groups described in B. […]
In addition, rather than treating the mice with vaso prior to toxin exposure as described above, mice were simultaneously inoculated with cyclophosphamide and vaso. Thus, groups of mice (n=6) received either buffer alone (100 μl s.c) daily for 16 days, vaso (300 μg/mouse s.c) alone daily for 16 days, cyclophosphamide (500 μg/mouse i.p.) either alone or together with vaso (300 μg/mouse s.c) for 16 days. Other groups of mice (n=6) were inoculated daily for 11 days with cyclophosphamide (250 μg/mouse i.p.) either alone or together with vaso (300 μg/mouse s.c).

The test system of data set [4] is peripheral white blood cells. Kind of data set: Peripheral white blood cell counts after total body irradiation of C57BL/6N mice. The format is in vivo. The settings on record: vaso 300 μg/mouse/day s.c. On the procedure: In a subsequent experiment, groups of 8 week old C57BL/6N mice were irradiated with either 300 or 400 rad total body irradiation and treated the mice daily with s.c. inoculations of either buffer of vaso (300 μg/mouse/day). Peripheral white blood cell counts were obtained on days 5 and 9 post irradiation. On day 5, the total white cell count in the mice that had received 300 rad total body irradiation and had been treated with buffer was 1.2×10^3/mm^3 as opposed to 2.14×10^3/mm^3 in the mice treated with vaso. Also on day 5 post-irradiation, the total white cell count in the mice that had received 400 rad total body irradiation and had been treated with buffer was 0.66×10^3/mm^3 as opposed to 1.22×10^3/mm^3 in the mice treated with vaso. On day 9 post irradiation, the total white cell count in the mice that had received 400 rad total body irradiation and had been treated with buffer was 0.79×10^3/mm^3 as opposed to 1.37×10^3/mm^3 in the mice treated with vaso.

The subject of data set [5] is fetal bovine heart endothelial cells (FBHEC). The settings on record: as previously reported (Pike et al., 1998; 1999); cited from earlier work.

`O=P1(N(CCCl)CCCl)NCCCO1` (stereo not drawn) [cyclophosphamide, reference compound]: the “peripheral blood white cell counts on day 5 after cyclophosphamide” value in data set [1] (cyclophosphamide 2.0 or 1.0 mg/mouse alone, vs buffer or vaso alone controls) is “significantly reduced”. In data set [2], this molecule returned an average tumor size of 4.98 cm^2 and an average tumor weight of 4.69 g. The “bone marrow cell counts on day 17” value in data set [3] (cyclophosphamide 250 μg/mouse daily for 11 days then single 2 mg/mouse injection on day 12, alone) is on record as “considerable reduction of bone marrow cell counts”. Besides, the “bone marrow cell counts on day 9” value in data set [3] (cytoxan 500 μg/mouse/day i.p. alone, vs PBS controls) is given as “did not reduce bone marrow cell counts on day 9”. In addition, the “bone marrow cell counts on day 17” value in data set [3] (cytoxan 500 μg/mouse/day i.p. for 16 days alone, vs PBS controls) is given as “reduced them on day 17”.

B1: vaso: N-terminal domain of calreticulin (amino acids 1-180, SEQ ID NO:3); given as fusion protein with maltose binding protein, MBP-vaso (protein)
chain: EPAVYFKEQFLDGDGWTSRWIESKHKSDFGKFVLSSGKFYGDEEKDKGLQTSQDARFYALSASFEPFSNKGQTLVVQFTVKHEQNIDCGGGYVKLFPNSLDQTDMHGDSEYNIMFGPDICGPGTKKVHVIFNYKGKNVLINKDIRCKDDEFTHLYTLIVRPDNTYEVKIDNSQVESGSLE
modifications: Vasostatin
For the molecule B1, the “reduction in peripheral blood white cell counts caused by cyclophosphamide, day 5” value in data set [1] (cyclophosphamide 2.0 or 1.0 mg/mouse with vaso 300 μg/mouse/day) is listed as “alleviated”. The “total white cell count, day 5 post irradiation” value in data set [4] (300 rad total body irradiation, buffer 1.2×10^3) is 2.14×10^3 /mm^3. In addition, the “total white cell count, day 5 post irradiation” value in data set [4] (400 rad total body irradiation, buffer 0.66×10^3) is given as 1.22×10^3 /mm^3. Also, the “total white cell count, day 9 post irradiation” value in data set [4] (400 rad total body irradiation, buffer 0.79×10^3) is given as 1.37×10^3 /mm^3. For the same molecule, in data set [2], the average tumor size came out at 4.85 cm^2 and the average tumor weight was 3.79 g. Besides, the “proliferation of primary cultures of FBHEC” value in data set [5] is recorded as “consistently inhibited the proliferation”. Also, the “bone marrow cell counts on day 17” value in data set [3] (Vaso 300 μg/mouse/day s.c. for 16 days with cyclophosphamide 250 μg/mouse daily for 11 days then 2 mg/mouse on day 12) is “prevented the occurrence of a reduction in bone marrow cell counts”. The “bone marrow cell count on days 9 and 17” value in data set [3] (cyclophosphamide 500 μg/mouse/day i.p. plus vasostatin 300 μg/mouse/day s.c.) was “higher than in the control mice and in the mice treated with cytoxan”.
